Target: CCR3 chemokine receptor (human) (UniProt P51677)
Experiment: cell-based or functional assay

Chain of UniProt P51677 (P51677 whole entry): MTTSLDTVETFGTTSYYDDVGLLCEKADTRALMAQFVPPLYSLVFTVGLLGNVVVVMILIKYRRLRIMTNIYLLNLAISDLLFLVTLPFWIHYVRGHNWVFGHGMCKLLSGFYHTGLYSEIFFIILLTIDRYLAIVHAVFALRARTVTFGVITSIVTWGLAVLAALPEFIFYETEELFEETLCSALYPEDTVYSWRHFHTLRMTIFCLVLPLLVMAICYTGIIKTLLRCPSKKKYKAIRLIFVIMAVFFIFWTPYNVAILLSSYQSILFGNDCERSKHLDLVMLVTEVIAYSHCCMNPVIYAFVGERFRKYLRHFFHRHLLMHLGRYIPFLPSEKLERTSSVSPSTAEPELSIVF

chemotactic response of purified human eosinophils to eotaxin; decrease of migration after antisense oligonucleotides against CCR3: 55.6%
Substance: rhEotaxin (Biosource, cat# PMC1434) (from UniProt P51671 24-97) (ligand)

— patent publication US20090215861A1
